Experiments:
C57Bl/6J mice [1] = test: Core body temperature of aged mice; type: in vivo, mouse; settings: mice aged 110 weeks; 40 mg/kg IP every 3 weeks from age 55 weeks; vs isotype control IgG
Protocol: From age 55 weeks (human equivalent of ˜45 years old (i.e. middle age)) to age 110 weeks (human equivalent of ˜75 years old), mice were administered with 40 mg/kg of either X203 or isotype-matched control IgG via intra-peritoneal injection every 3 weeks.
At age 110 weeks, frailty was assessed using the Mouse Frailty Index described in Rizzo et al. Curr Protoc Mouse Biol. (2018) 8(2):e45, which is hereby incorporated by reference in its entirety. In this protocol, mice are individually observed and evaluated for the absence or presence and severity of 27 different characteristics each scored as 0, 0.5, or 1 based on level of severity. A frailty index score is calculated as the cumulative score of all measures. As a separate measurement of frailty, core body temperature was recorded, as core body temperature is known to decrease with increasing frailty in mice (Reynolds et al., Mechanisms of Ageing and Development (1985) 30(2):143-52). Data were analysed by 2-way ANOVA.

C57Bl/6J mice [2] = test: Analysis of markers of cellular senescence in tissues; type: in vivo, mouse; settings: at 110 weeks; p16INK4a, p21CIP1, p53, SA-ß-gal; vs IgG control antibody
Text: C57Bl/6J mice are randomised to receive either X203 or IgG control antibody at a dose of 40m/kg via IP injection every 3 weeks from age 55 weeks to age 110 weeks.
At 110 weeks, tissues are harvested from the mice cells of the relevant tissues and analysed for gene and/or protein expression of p16^INK4a, p21^CIP1 and p53, and for SA-ß-gal activity.

AML12 cells = test: In vitro model of senescence induction, qRT-PCR at day 7; type: cell-based, mouse; settings: 2 ug/ml from day 2, H2O2 0.75 mM, vs isotype-matched control IgG
Protocol: Senescent hepatic mouse cells were generated from cells of the mouse hepatocyte cell line AML12 as described in Tripathi et al., Star Protocols (2020) 1:100064 (hereby incorporated by reference in its entirety).
Briefly, AML12 cells were grown to 50% confluency and senescence was induced by treating the cells with a sub-lethal concentration of H2O2 (0.75 mM) for 1 h, followed by 23 h recovery per day, for a total of 7 days (as described in Tripathi et al., Star Protocols (2020) 1:100064). From day 2 onwards, 2 ug/ml of X209/X203 or isotype-matched control IgG was added to the cultures during the 23h recovery period.
Total RNA was isolated at day 7, and levels of p21 (Cdkn1a), […], Il11 and Tgfb gene expression were evaluated by qRT-PCR. Briefly, total RNA was extracted from cell lysates using Trizol (Invitrogen) followed by RNeasy column (Qiagen) purification. cDNAs were synthesized with iScript™ cDNA synthesis kit (Bio-Rad) according to manufacturer's instructions. Gene expression analysis was performed with either TaqMan (Applied Biosystems) or fast SYBR green (Qiagen) using the StepOnePlus Real-Time PCT System (Applied Biosystems) over 40 cycles. Expression data for p21 (Cdkn1a), Il1b, Il11 and Tgfb were normalised to Gapdh expression, and fold change was calculated using the 2^−ΔΔCt method.

[3] = system: Primary human hepatocytes; test: Hepatocytes stimulated with IL-11, BSA or palmitate with X203, X209 or IgG, western blot; type: cell-based; settings: 24 hours; antibody 2 μg/ml; IL11 10 ng/ml or palmitate 0.5 mM
Protocol: FIG. 20. Western blot image showing the levels of p-ERK, ERK, p-P90RSK, P90RSK, p-LKB1, LKB1, p-AMPK, AMPK, p-Acetyl-CoA Carboxylase (p-ACC), Acetyl-CoA Carboxylase (ACC), p-mTOR, mTOR, p-p70S6K, p70S6K, p-S6RP, S6RP in primary human hepatocytes that are unstimulated (BL) or stimulated for 24 hours with either IL11, 0.5% BSA, or palmitate (saturated fatty acid) in the presence of X203, X209, or IgG (11E10) isotype control. IL11 (10 ng/ml), IgG/X203/X209 (2 μg/ml), palmitate (0.5 mM) conjugated in free BSA (0.5% BSA solution) in the ratio of 6:1.
Primary human hepatocytes (stimulated with IL-11, BSA or palmitate, or unstimulated) were treated with X203 (anti-IL-11 antagonist antibody) and X209 (anti-IL-11Rα antagonist antibody). […] Treatment with X203 or X209 essentially reverses the effect of palmitate stimulation on these markers to the levels observed in the unstimulated control.

[4] = system: Primary human cardiac fibroblasts; test: IL11 or TGFβ1 stimulated fibroblasts with X203, X209 or IgG, western blot; type: cell-based; settings: IL11/TGFβ1 10 ng/ml, 24 hours; antibody 2 μg/ml
Protocol: FIG. 19. Western blot image showing the levels of p-ERK, ERK, p-P90RSK, P90RSK, p-LKB1, LKB1, p-AMPK, AMPK, p-mTOR, mTOR, p-p70S6K, p70S6K, p-S6RP, S6RP, SMA, and GAPDH in primary human cardiac fibroblasts that are unstimulated (BL) or stimulated for 24 hours with either IL11 or TGFβ1 in the presence of X203, X209, or IgG (11E10) isotype control. IL11/TGFβ1 (10 ng/ml), IgG/X203/X209 (2 μg/ml).
Primary human cardiac fibroblasts were stimulated with IL11 or TGFβ1, or unstimulated (BL).

C57Bl/6J mice [5] = test: In vivo administration of anti-IL11 (X203) to old mice, summary of multi-morbidity; set-up: species or system mouse; settings: vs IgG
Text: Furthermore, the data disclose that: • Administration of MEK1/2 inhibitor U0126 to cells stimulated with IL11 prevents ERK-mediated inactivation of LKB1/AMPK that stops IL11-induced mTORC1/P70S6K activation. • Administration of anti-IL11 (X203) vs IgG control to mice aged 55-110 weeks old results in lesser ERK activation, restored LKB1/AMPK activity and reduced mTORC1 activity and senescence markers (p16/p21). This is seen across tissues. • Mice deleted for IL11RA1 at 110 weeks old mirror the effects seen with X203 administration and have a signaling profile more similar to young mice, across tissues. • Administration of X203 vs IgG to old mice improves multi-morbidity with better serum levels of fats, glucose, lesser tissue fibrosis, better kidney function, reduced tissue inflammation, reduced obesity and lesser frailty. • Administration of X203 vs IgG to old mice improves markers of inflammation (CCL2, CCL5, TNFa, IL1b, IL11 and IL6)—an altered intercellular communication Hallmark of ageing—across tissues, including liver, kidney and skeletal muscle.
Male and female C57Bl/6J mice aged 46 weeks were purchased from the Jackson Laboratory. Mice were randomised on a 1:1 basis to receive either 40 mg/kg of X203 or an isotype control IgG antibody (11E10), every 3 weeks (IP), starting from 55 weeks of age. Mice were sacrificed at 110 weeks of age for blood and tissues collection. […]

B1: X203: mouse anti-mouse IL-11 IgG antagonist antibody; VH SEQ ID NO:22, VL SEQ ID NO:23 (antibody, V domains shown)
VH: EVQLQQSGPELVKPGASVKIPCKASGYTFTDYNMDWVKQSHGKSLEWIGDINPHNGGPIYNQKFTGKATLTVDKSSSTAYMELRSLTSEDTAVYYCARGELGHWYFDVWGTGTTVTVSS
VL: DIVLTQSPASLAVSLGQRATISCRASKSVSTSGYSYIHWYQQKPGQPPKLLIYLASNLDSGVPARFSGSGSGTDFTLNIHPVEEEDAATYYCQHSRDLPPTFGGGTKLEIK
C57Bl/6J mice [1]
  body temperature: significantly higher
C57Bl/6J mice [2]
  levels of markers of cellular senescence: lower
AML12 cells
  gene expression of Il11: trended towards a reduced level
  gene expression of Tgfb: significantly reduce
[3]
  levels of p-AMPK and p-ACC: increase
  levels of phosphorylated markers p-ERK, p-p90RSK, p-LKB1, p-mTOR, p-p70S6K and p-S6RP: reduces
[4]
  level of phosphorylation of markers ERK, p90RSK, LKB1, mTOR, p70S6K and S6RP: significantly reduce
C57Bl/6J mice [5]
  multi-morbidity (serum levels of fats, glucose, tissue fibrosis, kidney function, tissue inflammation, obesity, frailty): improves

Reference: US20230399393A1, “METHODS TO EXTEND HEALTH-SPAN AND TREAT AGE-RELATED DISEASES” (National University of Singapore, priority 2020, published 2023)
